{"source": "patent US10508147B2", "about": "“Anti-nodal antibodies and methods of using same” (ANN AND ROBERT H. LURIE CHILDREN'S HOSPITAL OF CHICAGO, priority 2014, dated 2019)", "key": {"recombinant Nodal": {"target": "T1, recombinant Nodal (Homo sapiens, UniProt Q96S42)", "T1 sequence (Q96S42 238-347)": "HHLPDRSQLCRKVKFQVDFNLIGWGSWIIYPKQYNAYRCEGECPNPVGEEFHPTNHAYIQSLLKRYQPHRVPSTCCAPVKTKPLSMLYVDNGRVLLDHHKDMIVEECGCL", "assay": "Sandwich ELISA to detect Nodal with 3D1 as capture antibody", "design": "E. coli derived His238 Leu347, with an N-terminal Met; purchased R&D Systems", "settings": "rabbit monoclonal anti-Nodal for detection", "text": "A typical calibration curve was obtained using a sandwich ELISA assay developed to detect Nodal (detection limit 50 pg/well) (See FIG. 22). The assay used monoclonal anti-Nodal antibody (designated 3D1) to coat an ELISA dish to capture rNodal (recombinant Nodal) from solutions with different concentrations of rNodal and a second, rabbit monoclonal anti-Nodal antibody to detect the captured rNodal. The resulting captured rNodal-antibody complex was then detected with an anti-rabbit antibody conjugated to horseradish peroxidase and a QuantaRed enhanced chemifluorescent horseradish peroxidase substrate.\nBy epitope mapping of commercially available Nodal antibodies and 3D1 mAb, the latter was chosen as the capture antibody for coating ELISA dishes, while a rabbit monoclonal anti-Nodal (Abcam) served for detecting the bound Nodal. The immune complex was subsequently quantified using a horseradish peroxidase-conjugated anti-rabbit antibody in conjunction with QuantaRed enhanced chemifluorescent horseradish peroxidase substrate (ThermoFisher). The established sandwich ELISA assay detects Nodal as a recombinant protein in conditioned media from human embryonic stem cells and in biological fluids with a detection limit (calculated using recombinant Nodal) of […]. Human serum samples from breast cancer patients were purchased from BioOptions (Brea, Calif.)."}, "[1]": {"system": "A375SM human metastatic melanoma cells", "assay": "A375SM orthotopic xenograft in Nude mice", "format": "in vivo", "procedure": "Experiments were carried out to determine the in vivo effects of 3D1 mAb on primary melanoma. To this end, 500,000 C8161 cells were injected subcutaneously in Nude mice. Palpable tumors were then injected directly with either 700 μg of total 3D1 mAb or IgG control antibody (alternate day intratumoral injection of 100 μg over 14 days). Mice were then sacrificed and subcutaneous tumors harvested and processed as previously described. To evaluate the effect of 3D1 mAb in the presence of the BRAF(V600E) mutation, a third orthotopic xenograft model was established in Nude mice via subcutaneous injection of approximately 150,000 A375SM human metastatic melanoma cells. Mice were treated IP with 3D1 mAb or IgG control, as described above, or 3 mg/kg of dabrafenib.\nFour micron thick, formalin fixed, paraffin embedded tissue sections were prepared and immunohistochemistry was carried out on a Dako Plus autostainer (DAKO, Inc, Carpenteria, Calif.). Following antigen retrieval and blocking steps, sections were incubated in primary antibody for 60 mins, followed by appropriate biotinylated secondary antibody (Biocare Medical, Conrad, Calif.), and then streptavidin-horseradish peroxidase (Thermo Scientific Lab Vision). Color was developed with 3,3′-diaminobenzidine substrate (Thermo Scientific Lab Vision) and sections were counterstained with hematoxylin (Biocare Medical, LLC). As a negative control, adjacent serial sections were incubated with species appropriate irrelevant IgG (Jackson ImmunoResearch Labs) at the same concentration as primary antibodies. Similar to the lung tumor burden evaluation described above, mean percentage of positive staining±SEM was determined by 2 different observers, each calculating the ratio of positive cells/total number of cells×100 for 4 separate high power fields (63× objective) from at least 2 different mice per group."}, "[2]": {"target": "T2, native Nodal protein in LCP, A375 and WM266 melanoma cells (Homo sapiens, UniProt Q96S42)", "T2 construct": "recognize the endogenous forms of Nodal protein in human melanoma cells; endogenous in cells; host or cells: human melanoma lines PES, A-375, SK-MEL, WM 266, LCM (blot); LCP, A375, WM266 (FACS)", "T2 sequence (Q96S42 238-347)": "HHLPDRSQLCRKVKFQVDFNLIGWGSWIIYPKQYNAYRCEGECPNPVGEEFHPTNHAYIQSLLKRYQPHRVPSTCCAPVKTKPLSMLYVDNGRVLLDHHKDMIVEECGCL", "assay": "FACS staining of Nodal in fixed and permeabilized human melanoma cell lines with 3D1", "format": "binding", "settings": "0.1-2.0 μg/mL, dose-dependent", "procedure": "LCP, A375 and WM266 melanoma cells were collected by centrifugation. After aspiration of supernatant, the cells were resuspended in 500 μL of PBS and formaldehyde was added to obtain a final concentration of 4%. Cells were fixed for 10 min at room temperature. After fixation, cells were permeabilized by adding 500 μL of PBS-Tween 20. 1×10^6 cells were aliquoted into each vial; 1 mL of PBS (incubation buffer) was added to each vial and cells were washed by centrifugation at 4000 rpm for 5 min at 4° C. Cells were resuspended in 100 μL of solution of 3D1 anti-Nodal antibody (primary antibody), diluted in PBS at the following concentrations: 0.1, 0.5, 1.0 and 2.0 μg/mL. A standard IgG1 isotype was used as negative control. Cells were incubated with the primary antibody for 1 h at 4° C. under shaking. After incubation, cells were washed by centrifugation in 1 mL of PBS, resuspended and incubated with a FITC-conjugated anti-mouse antibody (secondary antibody), diluted 1:1000 (1.0 μg/mL) in PBS, for 40 min at 4° C. in the dark under stirring. Cells were washed by centrifugation with 1 mL of incubation buffer, re-suspended in […] and analyzed on flow cytometer. Fluorescence was evaluated using the BD FACScalibur System."}}, "note": "“Also recorded” adds a separate entry of the source."}
{"molecule": "3D1: mouse monoclonal anti-Nodal antibody raised against hNodal(44-67); light chain SEQ ID NO:1, heavy chains SEQ ID NO:2 and 3 (protein, not fully specified; (120)..(120) Xaa can be any naturally occurring amino acid) light: DIKMTQSPASLSASVGETVTITCRASGNIHNYLAWYQQKQGKSPQLLVYNAKTLADGVPSRFSGSGSGTQYSLKINSLQPEDFGSYYCQHFWSTPHVRCWDQAGTETEAW heavy 1: VKLVESGGGLVKPGGSLKLSCAASGFTFSSYAMSWVRQTPEKRLEWVASISSGGCTYYPDSVKGRFTISRDNARNILYLQMSSLRSEDTAMYYCARGSMITADGNSLLLCYGLLGSRNLXHR heavy 2: VKLVESGGGLVQPGGSMKLSCVASGFTFRNYWMSWVRQSPEKGLEWVAEIRLKSDNYAARYAESVKGKFTISRDDSKSRLYLQMNSLRAEDTGIYYCTGIRRFAYWGQGTL", "values": [{"measurement": "detection limit for Nodal", "setting": "recombinant Nodal", "result": 50, "unit": "pg/well"}, {"measurement": "detection limit for Nodal", "setting": "recombinant Nodal; listed as 3D1 mAb", "result": 75, "unit": "pg/well"}, {"measurement": "mean percentage (±SEM) of nuclear P-Smad2", "setting": "[1]; IHC, N=4", "result": "28.1%±2.6%"}, {"measurement": "tumor volumes", "setting": "[1]; after 8 days, vs IgG control, listed as 3D1 mAb", "result": "significantly reduced; also recorded: significantly smaller"}, {"measurement": "binding to native Nodal protein in cells (FACS)", "setting": "[2]", "result": "bound native Nodal protein also in intact cells at very low concentrations"}]}
